These results are taken from patent publication US20260132207A1 (ACCELERON PHARMA, published 2026).

Assay [1] concerns the target T1, dimeric hActRIIA (human, UniProt P27037 20-135).
T1 construct: also called ActRIIA DIMER; ActRIIA dimer
In words: SPR (Biacore), 37 C, antibody captured on anti-hFc IgG chip, dimeric ActRIIA injected. As to the method: (§1) Kinetic characterization of J01, K01, L01, M01, N01, and P01 antibodies binding to monomeric and dimeric hActRIIB and hActRIIA was performed using standard BIACORE®-based analysis at 37° C. In brief, antibodies were captured on anti-hFclgG Biacore chips and different concentrations of dimeric and monomeric ActRIIB or ActRIIA were injected in duplicates over the captured antibody and control surface. To obtain kinetic rate constants the data were double referenced and fit to a 1:1 interaction model using BiaEvaluation software (GE Healthcare). The equilibrium binding constant KD was determined by the ratio of binding rate constants kd/kₐ
A general note: In SPR one partner is held on a chip, and binding of the other changes the refractive index at the surface.

The target in assay [2] is T2, dimeric hActRIIB (human, UniProt Q13705 19-134).
T2 construct: also called ActRIIB DIMER; ActRIIB dimer
T2 sequence (Q13705 19-134): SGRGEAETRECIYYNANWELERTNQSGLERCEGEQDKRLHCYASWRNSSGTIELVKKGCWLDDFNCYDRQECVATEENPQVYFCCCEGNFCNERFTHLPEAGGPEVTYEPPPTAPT
In words: SPR (Biacore), 37 C, antibody captured on anti-hFc IgG chip, dimeric ActRIIB injected, KD = kd/ka. As to the method:
as §1

The target of assay [3] is T3, monomeric hActRIIB (human, UniProt Q13705 19-134, limits assumed).
T3 construct: also called ActRIIB MONOMER; ActRIIB monomer
T3 sequence (Q13705 19-134 limits assumed): as the sequence (Q13705 19-134) above
In words: SPR (Biacore), 37 C, antibody captured on anti-hFc IgG chip, monomeric ActRIIB injected, 1:1 model. The protocol: as §1

Assay [4] concerns the target T3, monomeric hActRIIB. The assay can be described thus: SPR (Biacore), 37 C, antibody captured on anti-hFc IgG chip, monomeric ActRIIB injected, KD = kd/ka. The protocol:
as §1

In assay [5] the target is T2, dimeric hActRIIB. In words: SPR (Biacore), 37 C, antibody captured on anti-hFc IgG chip, dimeric ActRIIB injected, 1:1 model. As to the method:
as §1

The target in assay [6] is T4, monomeric hActRIIA (human, UniProt P27037 20-135, limits assumed).
T4 construct: also called ActRIIA MONOMER; ActRIIA monomer
T4 sequence (P27037 20-135 limits assumed): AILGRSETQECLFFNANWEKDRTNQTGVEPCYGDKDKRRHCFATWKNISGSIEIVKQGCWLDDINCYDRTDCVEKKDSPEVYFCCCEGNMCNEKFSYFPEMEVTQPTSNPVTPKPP
The assay can be described thus: SPR (Biacore), 37 C, antibody captured on anti-hFc IgG chip, monomeric ActRIIA injected, 1:1 model. As to the method:
as §1

In assay [7] the target is T4, monomeric hActRIIA. The assay can be described thus: SPR (Biacore), 37 C, antibody captured on anti-hFc IgG chip, monomeric ActRIIA injected, KD = kd/ka. As to the method: as §1
For assay [8], the target named is T1, dimeric hActRIIA. In words: SPR (Biacore), 37 C, antibody captured on anti-hFc IgG chip, dimeric ActRIIA injected, 1:1 model. As to the method:
as §1

Assay [9] deals with T1, dimeric hActRIIA. The assay can be described thus: SPR (Biacore), 37 C, antibody captured on anti-hFc IgG chip, dimeric ActRIIA injected, KD = kd/ka. As to the method:
as §1

T1 sequence (P27037 20-135): as the sequence (P27037 20-135 limits assumed) above

B1: K01 (antibody, human IgG1, kappa, V domains shown)
VH: QLQLQESGPGLVKPSETLSLTCTVSGGSISSSSYYWGWIRQPPGKGLEWIGSISYSGSTYYNPSLKSRVTISVDTSKNQFSLKLSSVTAADTAVYYCARDSLRYGMDVWGQGTTVTVSS
VL: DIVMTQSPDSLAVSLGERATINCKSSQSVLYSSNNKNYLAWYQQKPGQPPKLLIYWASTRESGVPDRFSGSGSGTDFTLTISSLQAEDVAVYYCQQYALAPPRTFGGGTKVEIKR
notes: Naive human IgG from a yeast library; It was captured on an anti-hFc IgG chip in the SPR assay; also called K01 antibody; mAB K01
Consider B1, for which the binding result in the assay with dimeric hActRIIA [1] is given as “no binding”. Besides, the Kd (in general, the free concentration of one partner at which half of the binding sites on the other are occupied at equilibrium, for simple one-to-one binding) in the assay with dimeric hActRIIB [2] was 6.57 nM; with monomeric hActRIIB [4] it was 16 nM. For the same molecule, the koff (as a rule, a measure of how fast the partners let go of each other) worked out at 0.00237 s⁻¹ in the assay with monomeric hActRIIB [3] and 0.000683 s⁻¹ with dimeric hActRIIB [5]. For the same molecule, the kon (as a rule, the second-order rate constant of association) in the assay with monomeric hActRIIB [3] turned out to be 148000 M⁻¹ s⁻¹; in the assay with dimeric hActRIIB [5], 104000 M⁻¹ s⁻¹.

B2: N01 (antibody, human IgG1, kappa, V domains shown)
VH: QLQLQESGPGLVKPSETLSLTCTVSGGSISSSSYYWGWIRQPPGKGLEWIGSISYSGSTYYNPSLKSRVTISVDTSKNQFSLKLSSVTAADTAVYYCARDSLRYGMDVWGQGTTVTVSS
VL: DIQMTQSPSTLSASVGDRVTITCRASQSIGSWLAWYQQKPGKAPKLLIYKASSLESGVPSRFSGSGSGTEFTLTISSLQPDDFATYYCQVYGSYSPRTFGGGTKVEIKR
notes: also called N01 antibody; mAB N01
With B2, the binding result with dimeric hActRIIA [1] was “no binding”. Also, the Kd was found to be 1.84 nM with dimeric hActRIIB [2] and 18.5 nM with monomeric hActRIIB [4]. Moreover, the values for the koff with monomeric hActRIIB [3] and with dimeric hActRIIB [5] were 0.00769 s⁻¹ and 0.000335 s⁻¹, respectively. Further, the kon with monomeric hActRIIB [3] is 416000 M⁻¹ s⁻¹; with dimeric hActRIIB [5], 182000 M⁻¹ s⁻¹.

B3: L01 (antibody, human IgG1, kappa, V domains shown)
VH: QLQLQESGPGLVKPSETLSLTCTVSGGSISSSSYYWGWIRQPPGKGLEWIGSISYSGSTYYNPSLKSRVTISVDTSKNQFSLKLSSVTAADTAVYYCARDSLRYGMDVWGQGTTVTVSS
VL: EIVMTQSPATLSVSPGERATLSCRASQSVSSNLAWYQQKPGQAPRLLIYGASTRATGIPARFSGSGSGTEFTLTISSLQSEDFAVYYCQVYNVWPRTFGGGTKVEIKR
notes: Naive human IgG; also called L01 antibody; mAB L01
For B3, the binding result with dimeric hActRIIA [1] is “no binding”. Besides, the Kd stood at 1.72 nM with dimeric hActRIIB [2] and 19.5 nM with monomeric hActRIIB [4]. Also, the koff with monomeric hActRIIB [3] worked out at 0.0179 s⁻¹; in the assay with dimeric hActRIIB [5], 0.000365 s⁻¹. In addition, the figures for the kon with monomeric hActRIIB [3] and in the assay with dimeric hActRIIB [5] were 921000 M⁻¹ s⁻¹ and 212000 M⁻¹ s⁻¹, respectively.

B4: M01 (antibody, V domains shown)
VH: EVQLLESGGGLVQPGGSLRLSCAASGFTFGSYGMTWVRQAPGKGLEWVSVISGSGGGTYYADSVKGRFTISRDNSKNTLYLQMNSLRAEDTAVYYCAKGPRVVGMDVWGQGTTVTVSS
VL: DIQMTQSPSSVSASVGDRVTITCRASQGISSWLAWYQQKPGKAPKLLIYAASSLQSGVPSRFSGSGSGTDYTLTISSLQPEDFATYYCQQVFSYPLTFGGGTKVEIK
notes: Optimized human IgG; It was captured through its Fc on an anti-hFc IgG chip; also called M01 antibody; mAB M01
In the case of B4, the binding result with dimeric hActRIIA [1] was “no binding”. For the same molecule, the Kd worked out at 0.107 nM in the assay with dimeric hActRIIB [2] and 0.0755 nM in the assay with monomeric hActRIIB [4]. Besides, the koff in the assay with monomeric hActRIIB [3] was found to be 8.72e-05 s⁻¹; with dimeric hActRIIB [5], 3.24e-05 s⁻¹. Moreover, the kon amounted to 1.16e+06 M⁻¹ s⁻¹ with monomeric hActRIIB [3] and 304000 M⁻¹ s⁻¹ with dimeric hActRIIB [5].

B5: J01 (antibody, V domains shown)
VH: QVQLVQSGAEVKKPGASVKVSCKASGYTFTSYRMHWVRQAPGQGLEWMGFIVPSGGSTSYAQKFQGRVTMTRDTSTSTVYMELSSLRSEDTAVYYCARVSRYAPEPMDVWGQGTTVTVSS
VL: DIQMTQSPSSVSASVGDRVTITCRASQGISRWLAWYQQKPGKAPKLLIYAASSLQSGVPSRFSGSGSGTDFTLTISSLQPEDFATYYCQQAFSHPWTFGGGTKVEIK
notes: also called J01 antibody; mAB J01
Regarding B5, the koff turned out to be 0.00259 s⁻¹ in the assay with monomeric hActRIIA [6], 9.31e-05 s⁻¹ in the assay with dimeric hActRIIA [8], 0.00022 s⁻¹ with monomeric hActRIIB [3] and 1.69e-05 s⁻¹ with dimeric hActRIIB [5]. The kon in the assay with monomeric hActRIIA [6] was found to be 828000 M⁻¹ s⁻¹; in the assay with dimeric hActRIIA [8], 484000 M⁻¹ s⁻¹; with monomeric hActRIIB [3], 1.05e+06 M⁻¹ s⁻¹; with dimeric hActRIIB [5] it was 452000 M⁻¹ s⁻¹. Besides, the Kd was 3.13 nM with monomeric hActRIIA [7], 0.0374 nM with dimeric hActRIIB [2], 0.209 nM with monomeric hActRIIB [4] and 0.192 nM with dimeric hActRIIA [9].

B6: P01 (antibody, V domains shown)
VH: EVQLLESGGGLVQPGGSLRLSCAASGFTFSSYAMSWVRQAPGKGLEWVSAISGSGGSTSYADSVKGRFTISRDNSKNTLYLQMNSLRAEDTAVYYCARLPQYSRPFDYWGQGTLVTVSS
VL: DIQMTQSPSSVSASVGDRVTITCRASQGISSWLAWYQQKPGKAPKLLIYAASSLQSGVPSRFSGSGSGTDFTLTISSLQPEDFATYYCQQGHSFPLTFGGGTKVEIK
notes: Naive human IgG; also called P01 antibody; mAB P01
For the molecule B6, the binding result with dimeric hActRIIA [1] is on record as “no binding”. In the assay with dimeric hActRIIB [2], this molecule had a Kd of 37.4 nM. In the assay with dimeric hActRIIB [5], this molecule displayed a koff of 0.0145 s⁻¹ and a kon of 388000 M⁻¹ s⁻¹.
